Results from US20240010750A1 (Bayer, published 2024).

Legend:
human alpha2-Antiplasmin [1] = molecular target: T1, human alpha2-Antiplasmin (human, UniProt P08697 40-491); assay: ELISA (Example 3): antigen coated at 1 ug/ml, detection with anti-human lambda light chain-peroxidase and Amplex Red, RFU [left panel]
T1 construct: Bought (antibodies online, ABIN2544306); also called human A2AP; a2AP
T1 sequence: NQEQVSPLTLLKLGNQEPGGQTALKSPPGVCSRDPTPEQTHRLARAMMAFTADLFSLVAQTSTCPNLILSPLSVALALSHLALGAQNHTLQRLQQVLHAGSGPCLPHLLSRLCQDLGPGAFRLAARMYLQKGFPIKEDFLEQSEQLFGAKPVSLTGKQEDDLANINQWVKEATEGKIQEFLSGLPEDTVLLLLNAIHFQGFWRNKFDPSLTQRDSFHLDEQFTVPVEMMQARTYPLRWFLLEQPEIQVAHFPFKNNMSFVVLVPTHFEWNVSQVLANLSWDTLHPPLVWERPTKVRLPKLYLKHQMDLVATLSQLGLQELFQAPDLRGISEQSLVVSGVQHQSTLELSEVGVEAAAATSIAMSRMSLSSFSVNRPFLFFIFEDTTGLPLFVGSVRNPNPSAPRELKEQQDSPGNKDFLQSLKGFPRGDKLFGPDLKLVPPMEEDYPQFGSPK
Procedure: Binding activities towards human alpha2-Antiplasmin are shown in the left panel, towards rabbit alpha2-Antiplasmin are shown in the right panel of this figure. The binding activities were calculated as EC50 in M values.
A standard ELISA format was used for analyzing the binding affinity of Fabs of this invention to human and rabbit alpha-2-Antiplasmin, respectively. Antigens were coated to black 384 well Maxisorp microtiter plates (Nunc; catalogue number 460518), diluted to a concentration of 1 μg/ml in 1× Coating Buffer (Candor Bioscience; catalogue number 121125). Plates were incubated overnight at 4° C. After overnight incubation, plates were washed 2× with 50 μl/well using PBS+0.05% Tween 20. Following this, 50 μl/well of blocking buffer (Smart Block; Candor Bioscience; catalogue number 113500) was added and the plates were incubated for 1 hour at room temperature. Afterwards, plates were washed for 3× using […] PBS+0.05% Tween 20 buffer. Fabs of this invention were added at different concentrations in a final volume of 30 μl/well. Plates were incubated for 1 hour at room temperature. Following this incubation step, plates were washed for 3× using 50 μl/well of a PBS+0.05% Tween 20 buffer. […]
For measurement, the Infinite f500 reader (Tecan) was used.

[2] = molecular target: T2, cynomolgus alpha2-Antiplasmin (cynomolgus (Macaca fascicularis), UniProt P08697 28-491 (human entry)); assay: ELISA (Example 3): antigen coated at 1 ug/ml, detection with anti-human lambda light chain-peroxidase and Amplex Red, RFU
T2 construct: Made in house in the same way as the rabbit protein; also called cynomolgus A2AP; Macaca fascicularis A2AP
T2 chain: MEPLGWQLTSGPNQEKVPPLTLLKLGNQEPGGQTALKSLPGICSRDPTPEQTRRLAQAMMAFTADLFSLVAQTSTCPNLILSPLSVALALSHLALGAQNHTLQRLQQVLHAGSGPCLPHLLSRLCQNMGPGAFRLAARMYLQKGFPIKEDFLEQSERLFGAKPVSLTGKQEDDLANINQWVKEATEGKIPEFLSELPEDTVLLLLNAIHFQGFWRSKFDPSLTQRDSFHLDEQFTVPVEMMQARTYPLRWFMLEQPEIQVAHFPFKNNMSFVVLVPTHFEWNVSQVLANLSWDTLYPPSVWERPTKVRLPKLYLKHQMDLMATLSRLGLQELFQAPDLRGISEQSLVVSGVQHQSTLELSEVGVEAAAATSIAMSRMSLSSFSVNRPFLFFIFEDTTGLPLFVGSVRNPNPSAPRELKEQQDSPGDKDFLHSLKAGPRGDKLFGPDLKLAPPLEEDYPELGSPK
Procedure: A standard ELISA format was used for analyzing the binding affinity of Fabs of this invention to human and rabbit alpha-2-Antiplasmin, respectively. Antigens were coated to black 384 well Maxisorp microtiter plates (Nunc; catalogue number 460518), diluted to a concentration of 1 μg/ml in 1× Coating Buffer (Candor Bioscience; catalogue number 121125). Plates were incubated overnight at 4° C. After overnight incubation, plates were washed 2× with 50 μl/well using PBS+0.05% Tween 20. Following this, 50 μl/well of blocking buffer (Smart Block; Candor Bioscience; catalogue number 113500) was added and the plates were incubated for 1 hour at room temperature. Afterwards, plates were washed for 3× using […] PBS+0.05% Tween 20 buffer. Fabs of this invention were added at different concentrations in a final volume of 30 μl/well. Plates were incubated for 1 hour at room temperature. Following this incubation step, plates were washed for 3× using 50 μl/well of a PBS+0.05% Tween 20 buffer. For the detection of bound Fabs and full-length antibodies, the anti-Human Lambda Light Chains (Bound and Free)—Peroxidase antibody (Sigma; catalogue number A5175) was diluted by the factor of 1:10.000 in 10% Blocking Buffer. 30 μl/well of this diluted detection antibody was added and plates are incubated for 1 hour at room temperature. […]

human alpha2-Antiplasmin [3] = molecular target: T1, human alpha2-Antiplasmin; assay: SPR Biacore T200, antibody captured on protein G chip, A2AP as analyte, 25 C
Procedure: (§1) Binding assays were performed on a Biacore T200 instrument at 25° C. with a protein G sensor chip and assay buffer HBS-EP+. Antibodies were captured to ˜150 RU and analytes were used at concentrations between 1.56 and 200 nM for full kinetics. As interaction partner, alpha2-Antiplasmin from human, cynomolgus and rabbit was used. Regeneration was performed with glycine-HCl pH 1.5. Kinetic parameters were derived by fitting experimental sensorgrams to a 1:1 Langmuir binding model.

[4] = molecular target: T2, cynomolgus alpha2-Antiplasmin; assay: as above
Procedure: as §1

[5] = molecular target: T3, rabbit alpha2-Antiplasmin (rabbit (Oryctolagus cuniculus)); assay: as above
T3 construct: Made in house in HEK293 cells, purified by Ni-IMAC and SEC (a His tag is implied but not described); also called rabbit A2AP; Oryctolagus cuniculus A2AP
T3 chain: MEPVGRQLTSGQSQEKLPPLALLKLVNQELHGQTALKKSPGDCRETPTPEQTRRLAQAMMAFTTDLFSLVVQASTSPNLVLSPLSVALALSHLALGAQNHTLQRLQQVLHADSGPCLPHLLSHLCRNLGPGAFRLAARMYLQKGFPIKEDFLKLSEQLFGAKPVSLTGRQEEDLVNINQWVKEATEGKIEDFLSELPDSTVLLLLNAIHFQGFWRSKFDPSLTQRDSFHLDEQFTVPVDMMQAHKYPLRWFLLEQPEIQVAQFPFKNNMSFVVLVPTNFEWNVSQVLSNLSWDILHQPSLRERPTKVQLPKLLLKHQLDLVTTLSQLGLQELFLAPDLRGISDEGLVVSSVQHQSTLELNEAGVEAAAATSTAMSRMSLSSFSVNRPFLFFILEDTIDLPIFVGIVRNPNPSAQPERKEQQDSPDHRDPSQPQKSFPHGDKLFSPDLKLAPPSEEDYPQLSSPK
Procedure: as §1

EC50 (read off the curve) (human alpha2-Antiplasmin [1]): ~100 nM
EC50 (read off the curve) [2]: ~100 nM
Kd (human alpha2-Antiplasmin [3]): 180 nM
Kd [4]: 100 nM
Kd [5]: 43 nM
B1: TPP-12387 hIgG1 (antibody, V domains shown)
VH: EVQLLESGGGLVQPGGSLRLSCAASGFTFDDYAMSWVRQAPGKGLEWVSAIGTGGGTYYADSVKGRFTISRDNSKNTLYLQMNSLRAEDTAVYYCAREYYDSSGYYHLDYWGQGTLVTVSS
VL: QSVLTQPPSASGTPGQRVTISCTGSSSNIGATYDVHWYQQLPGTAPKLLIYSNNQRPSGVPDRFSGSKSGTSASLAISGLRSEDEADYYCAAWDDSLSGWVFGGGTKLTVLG
notes: Fully human IgG1 lambda from the BioInvent n-CoDeR Fab lambda library; parental lead antibody
